The values below come from publication PMC13071878, “Yeast Display Technology Enables Rapid Discovery of Low-Nanomolar Macrocyclic Peptide Inhibitors of Human Angiotensin-Converting Enzyme 2” (Journal of Medicinal Chemistry, 2026).

Test [1] concerns the target human angiotensin-converting enzyme 1 (hACE1) (human) (UniProt P12821). Put plainly: enzyme inhibition assay.
Test [2] deals with extracellular catalytic domain of human angiotensin-converting enzyme 2 (hACE2), produced in mammalian cells (human) (UniProt Q9BYF1). Put plainly: enzyme inhibition assay.
Chain of extracellular catalytic domain of human angiotensin-converting enzyme 2 (hACE2), produced in mammalian cells (human) (Q9BYF1 19-615): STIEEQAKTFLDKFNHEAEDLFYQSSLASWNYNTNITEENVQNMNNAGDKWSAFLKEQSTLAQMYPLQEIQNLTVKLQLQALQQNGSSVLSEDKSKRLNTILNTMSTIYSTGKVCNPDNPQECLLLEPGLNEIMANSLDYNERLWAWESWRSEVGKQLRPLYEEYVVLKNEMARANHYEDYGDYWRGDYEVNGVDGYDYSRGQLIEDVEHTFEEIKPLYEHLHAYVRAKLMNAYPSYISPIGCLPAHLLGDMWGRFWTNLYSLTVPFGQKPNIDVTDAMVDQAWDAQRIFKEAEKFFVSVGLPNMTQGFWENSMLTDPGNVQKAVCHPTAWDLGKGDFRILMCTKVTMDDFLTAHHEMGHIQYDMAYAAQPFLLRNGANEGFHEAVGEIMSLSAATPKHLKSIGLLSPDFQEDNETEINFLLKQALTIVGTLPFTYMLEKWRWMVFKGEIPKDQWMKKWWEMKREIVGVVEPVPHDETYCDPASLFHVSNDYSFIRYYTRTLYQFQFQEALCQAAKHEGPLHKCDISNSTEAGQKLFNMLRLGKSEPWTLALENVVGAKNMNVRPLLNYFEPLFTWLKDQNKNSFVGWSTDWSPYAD

A value given as a limit tells only on which side of the number the result lay.

As a reminder, the IC50 is the concentration that gives 50% inhibition. A higher IC50 goes with lower potency. What is called Ki is a measure of affinity in units of concentration, obtained from inhibition or displacement. A high value points to lower affinity.

Chain of human angiotensin-converting enzyme 1 (hACE1) (human) (P12821 30-1256): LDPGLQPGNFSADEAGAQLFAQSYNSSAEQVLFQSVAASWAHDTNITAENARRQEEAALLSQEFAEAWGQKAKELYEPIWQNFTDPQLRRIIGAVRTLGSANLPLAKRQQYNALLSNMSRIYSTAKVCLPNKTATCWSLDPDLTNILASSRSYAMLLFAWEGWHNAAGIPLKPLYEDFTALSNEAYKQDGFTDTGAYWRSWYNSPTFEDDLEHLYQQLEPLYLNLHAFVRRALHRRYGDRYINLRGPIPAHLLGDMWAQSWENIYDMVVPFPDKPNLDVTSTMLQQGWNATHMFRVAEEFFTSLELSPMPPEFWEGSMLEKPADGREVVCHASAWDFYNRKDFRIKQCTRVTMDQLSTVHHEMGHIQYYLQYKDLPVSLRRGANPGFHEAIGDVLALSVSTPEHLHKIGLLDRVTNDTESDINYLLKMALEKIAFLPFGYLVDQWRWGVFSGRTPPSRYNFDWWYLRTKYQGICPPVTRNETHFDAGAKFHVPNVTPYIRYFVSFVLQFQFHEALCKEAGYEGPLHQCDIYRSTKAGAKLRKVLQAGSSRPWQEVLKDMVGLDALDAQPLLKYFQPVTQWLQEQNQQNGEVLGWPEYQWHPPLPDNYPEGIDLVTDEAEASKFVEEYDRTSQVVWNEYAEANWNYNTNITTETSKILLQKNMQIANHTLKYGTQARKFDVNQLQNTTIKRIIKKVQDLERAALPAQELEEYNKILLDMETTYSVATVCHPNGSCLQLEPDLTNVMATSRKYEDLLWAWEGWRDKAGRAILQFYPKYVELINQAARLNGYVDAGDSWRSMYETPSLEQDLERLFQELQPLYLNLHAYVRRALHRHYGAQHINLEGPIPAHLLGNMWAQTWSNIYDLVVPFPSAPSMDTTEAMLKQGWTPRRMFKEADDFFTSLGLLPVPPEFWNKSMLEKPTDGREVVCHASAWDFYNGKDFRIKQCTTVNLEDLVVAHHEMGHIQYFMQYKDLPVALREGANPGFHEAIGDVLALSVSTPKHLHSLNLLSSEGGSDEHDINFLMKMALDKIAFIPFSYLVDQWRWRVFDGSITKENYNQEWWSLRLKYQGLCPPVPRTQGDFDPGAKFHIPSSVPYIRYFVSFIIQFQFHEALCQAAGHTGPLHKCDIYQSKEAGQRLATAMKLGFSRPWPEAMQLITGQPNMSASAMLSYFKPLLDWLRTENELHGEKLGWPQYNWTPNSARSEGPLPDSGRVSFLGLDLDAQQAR

Regarding “A0773, commercially available inhibitor (peptide)”, the results for the IC50 in test [1] and in test [2] were 212 nM and > 30000 nM, respectively. Further, the Ki in test [1] is 53 nM; in test [2], > 30000 nM.
